Reference: patent publication US20160296648A1

Tests used:
[1] = target: CD22 (human) (UniProt P20273); experiment: flow cytometry, normal BM B cells at day 180 post-RAIT (FIG. 1B), epratuzumab gone from the surface
[2] = target: CD22 (human) (UniProt P20273); experiment: flow cytometry on peripheral blood blasts at inclusion
[3] = target: CD22 (human) (UniProt P20273); experiment: flow cytometry on residual blasts of one non-responder after RAIT
[4] = target: CD22 (human) (UniProt P20273); experiment: flow cytometry, BM blasts at day 15 post-RAIT (FIG. 1A)
[5] = target: CD22 (human) (UniProt P20273); experiment: flow cytometry on blasts after elimination of epratuzumab from the surface
[6] = target: CD22 (human) (UniProt P20273); experiment: flow cytometry on residual blasts of four non-responders after RAIT
[7] = target: CD22 (human) (UniProt P20273); experiment: flow cytometry, normal BM B cells at day 90 post-RAIT (FIG. 1B)
[8] = target: CD22 (human) (UniProt P20273); experiment: flow cytometry on BM blasts of a patient who had received epratuzumab (epratuzumab on the cells)
[9] = target: CD22 (human) (UniProt P20273); experiment: flow cytometry on bone marrow blasts at inclusion
[10] = target: CD22 (human) (UniProt P20273); experiment: flow cytometry on residual blasts of three non-responders after RAIT (epratuzumab on the cells)

- % positive (normal BM B cells) [1]: 100%
- median % of CD22-SHCL-1 expression (peripheral blasts) [2]: 100%
- % positivity of residual blasts [3]: 84%
- % CD22 SHCL-1 blast expression [4]: 100%
- % labeling of blasts [5]: 100%
- % positivity of residual blasts [6]: 100%
- % CD22 SHCL-1 expression (normal BM B cells) [7]: 100%
- % of SHCL-1+ blasts [8]: 100%
- median % of CD22-SHCL-1 expression (bone marrow blasts) [9]: 100%
- % positivity of residual blasts [10]: 100%
Substance: SHCL-1 (anti-CD22 antibody clone, PE or PerCp-Cy5.5 conjugated, BD Biosciences)
